Test results taken from patent US20200024330A1.

Legend:
Assay in all cases: cell-based or functional assay
[1] = target: HIV-1 Env of isolate MGRM-A-003 (HIV-1)
[2] = target: HIV-1 MGRM-C-026 envelope glycoprotein (Env) (HIV-1)
[3] = target: HIV-1 Env of isolate MGRM-A-007 (HIV-1)
[4] = target: HIV-1 Env of isolate MGRM-A-002 (HIV-1)
[5] = target: HIV-1 JRCSF envelope glycoprotein (Env) (HIV-1) (UniProt P20871)
[6] = target: HIV-1 Env of isolate MGRM-A-012 (HIV-1)
[7] = target: HIV-1 94UG103 Env (on pseudovirus) (HIV-1)
[8] = target: HIV-1 Env of isolate MGRM-G-013 (subtype G) (HIV-1)
[9] = target: HIV-1 envelope glycoprotein (Env) of isolate MGRM-C-027, on pseudovirus (HIV-1)
[10] = target: HIV-1 MGRM-C-026 Env (on pseudovirus) (HIV-1)
[11] = target: HIV-1 92TH021 Env (on pseudovirus) (HIV-1)
[12] = target: HIV-1 MGRM-C-028 Env (on pseudovirus) (HIV-1)
[13] = target: HIV-1 92UG005 Env (on pseudovirus) (HIV-1)
[14] = target: HIV-1 Env of isolate MGRM-G-009 (subtype G) (HIV-1)
[15] = target: HIV-1 MGRM-D-001 Env (on pseudovirus) (HIV-1)
[16] = target: HIV-1 NL43 envelope protein (Env) on pseudotyped virus (HIV-1 NL43)
[17] = target: HIV-1 Env of pseudovirus MGRM-Chronic-B-002, clade B (HIV-1)
[18] = target: HIV-1 Env of isolate MGRM-F1-012 (HIV-1)
[19] = target: HIV-1 Env of isolate MGRM-D-026 (HIV-1)
[20] = target: HIV-1 MGRM-F1-018 Env (pseudovirus) (HIV-1)
[21] = target: HIV-1 Env of isolate MGRM-D-026 (clade D) (HIV-1)
[22] = target: HIV-1 APV-17 envelope protein (Env) on pseudovirus (HIV-1)
[23] = target: HIV-1 Env of pseudovirus TRJ0.58 (Acute), clade B (HIV-1)
[24] = target: HIV-1 JR-CSF envelope protein (Env) on pseudotyped virus (HIV-1 isolate JR-CSF) (UniProt P20871)

Sequence of PGT-144 (4970_K22) (antibody) (VH): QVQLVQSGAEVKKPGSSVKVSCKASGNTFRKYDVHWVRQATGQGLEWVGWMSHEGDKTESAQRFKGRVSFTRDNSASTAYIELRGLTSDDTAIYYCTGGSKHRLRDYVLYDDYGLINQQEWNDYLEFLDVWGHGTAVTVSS
Sequence of PGT-144 (4970_K22) (antibody) (VL): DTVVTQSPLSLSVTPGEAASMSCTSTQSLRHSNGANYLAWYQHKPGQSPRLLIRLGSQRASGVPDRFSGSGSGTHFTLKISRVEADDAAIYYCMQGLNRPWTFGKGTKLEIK
Sequence of PGT-143 (4980_N08) (antibody) (VH): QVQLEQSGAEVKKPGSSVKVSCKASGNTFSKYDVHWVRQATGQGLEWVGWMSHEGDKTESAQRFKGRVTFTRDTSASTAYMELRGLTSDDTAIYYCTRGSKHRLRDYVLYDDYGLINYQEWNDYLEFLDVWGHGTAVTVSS
Sequence of PGT-143 (4980_N08) (antibody) (VL): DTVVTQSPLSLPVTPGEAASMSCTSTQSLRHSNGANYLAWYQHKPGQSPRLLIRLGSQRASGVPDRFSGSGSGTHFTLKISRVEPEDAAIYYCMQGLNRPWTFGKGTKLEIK
Sequence of PGT-142 (4995_E20) (antibody) (VH): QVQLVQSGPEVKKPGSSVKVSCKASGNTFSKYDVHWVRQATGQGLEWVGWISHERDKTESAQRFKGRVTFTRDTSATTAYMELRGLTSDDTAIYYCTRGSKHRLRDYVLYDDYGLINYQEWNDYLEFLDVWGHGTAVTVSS
Sequence of PGT-142 (4995_E20) (antibody) (VL): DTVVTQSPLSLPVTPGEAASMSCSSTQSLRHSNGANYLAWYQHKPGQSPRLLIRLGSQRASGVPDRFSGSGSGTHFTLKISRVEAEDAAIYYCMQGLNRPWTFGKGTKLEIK
Sequence of PGT-141 (4964_G22; 4993_K13) (antibody) (VH): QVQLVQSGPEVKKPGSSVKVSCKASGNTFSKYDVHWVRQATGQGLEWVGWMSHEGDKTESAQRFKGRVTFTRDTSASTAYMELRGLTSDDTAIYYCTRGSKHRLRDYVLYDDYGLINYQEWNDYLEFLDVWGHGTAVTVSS

Row | Substance | IC50 neutralization [2] [µg/mL] | IC50 neutralization [5] [µg/mL] | IC50 (µg/mL), pseudovirus neutralization [6] [µg/mL] | IC50 (ug/ml), pseudovirus neutralization [7] [µg/mL] | neutralization IC50 [8] [µg/mL] | IC50, pseudovirus neutralization [9] [µg/mL] | IC50 (ug/ml), pseudovirus neutralization [10] [µg/mL] | IC50 (ug/ml), pseudovirus neutralization [11] [µg/mL] | IC50 (ug/ml), pseudovirus neutralization [12] [µg/mL] | IC50 (ug/ml), pseudovirus neutralization [13] [µg/mL] | neutralization IC50 [14] [µg/mL] | IC50 (ug/ml), pseudovirus neutralization [15] [µg/mL] | also measured
1 | PGT-122 (antibody) | 0.0089 | 0.0727 | 0.257 |  |  |  |  |  |  |  |  |  | IC50 (µg/mL), pseudovirus neutralization [1]: 3.79 µg/mL; IC50 (µg/mL), pseudovirus neutralization [3]: > 50 µg/mL; IC50 (µg/mL), pseudovirus neutralization [4]: 0.017 µg/mL
2 | PGT-143 (4980_N08) (antibody) |  |  |  | > 10 | > 50 | 0.598 | > 10 | 0.0028 | 1.82 | > 10 | 2.97 | > 10 | 
3 | PGT-142 (4995_E20) (antibody) |  |  |  | > 10 | > 50 | 0.792 | > 10 | 0.0022 | 1.23 | > 10 | 2.81 | > 10 | 
4 | PGT-121 (antibody) | 0.0034 | 0.0343 | 0.092 |  |  |  |  |  |  |  |  |  | IC50 (µg/mL), pseudovirus neutralization [1]: 0.435 µg/mL; IC50 (µg/mL), pseudovirus neutralization [3]: > 50 µg/mL; IC50 (µg/mL), pseudovirus neutralization [4]: 0.013 µg/mL
5 | 1496_C09 (PG9) (TCN-109) (antibody) | 0.113 | 0.0048 | 19.3 |  |  |  |  |  |  |  | 10.7 |  | IC50, pseudovirus neutralization, 1 hour Virus/Ab Incubation [16]: 0.294 µg/mL; IC50, pseudovirus neutralization, 18 hour Virus/Ab Incubation [16]: 38 µg/mL; IC50 (µg/ml), pseudovirus neutralization [17]: 1.41 µg/mL; IC50 [1]: 1.94 µg/mL; IC50 (µg/mL), pseudovirus neutralization [18]: 0.023 µg/mL; IC50 [3]: 1.06 µg/mL; IC50 (µg/mL), pseudovirus neutralization [19]: 23.7 µg/mL; IC50 (µg/ml), pseudovirus neutralization [20]: 0.03 µg/mL; IC50 (µg/ml), pseudovirus neutralization [21]: 17.5 µg/mL; neutralization IC50 [22]: 26.4 µg/mL; IC50 (µg/ml), pseudovirus neutralization [23]: 0.43 µg/mL; IC50, pseudovirus neutralization, 1 hour Virus/Ab Incubation [24]: < 0.0025 µg/mL; IC50, pseudovirus neutralization, 18 hour Virus/Ab Incubation [24]: < 0.0025 µg/mL
6 | PGT-144 (4970_K22) (antibody) |  |  |  | > 10 | > 50 | > 50 | > 10 | 0.0934 | > 10 | > 10 | > 50 | > 10 | 
7 | PGV04 (antibody) |  |  | 0.225 |  | 0.168 |  |  |  |  |  | 0.043 |  | IC50 [1]: 0.128 µg/mL; IC50 (µg/mL), pseudovirus neutralization [18]: 0.25 µg/mL; IC50 [3]: 7.21 µg/mL; IC50 (µg/mL), pseudovirus neutralization [19]: 1.76 µg/mL; IC50 [4]: 0.093 µg/mL
8 | PGT-141 (4964_G22; 4993_K13) (antibody) |  |  |  | > 10 | > 50 | 3.27 | > 10 | 0.0019 | 2.35 | > 10 | 1.89 | > 10 | 
